In patent US20150374794A1 (Novo Nordisk, published 2015):
Numbered stars: 1 amine (or outer) side, 2 acyl side, 3 side chain; on linkers, the order of the positions; unused ones are H or OH. Square brackets hold non-standard residues; d marks the D form. Side chains are listed from the residue outwards. Ends that are not written are not given here. * marks the point of attachment. C18 diacid = O=C(O)CCCCCCCCCCCCCCCCC(=O)*; γGlu = O=C(O)[C@H](CCC(=O)[*:2])N[*:1]; Ac4c = NC1(C(=O)O)CCC1; AEEA = NCCOCCOCC(=O)O; Aib = CC(C)(N)C(=O)O

Legend:
[1] = molecular target: T1, human glucagon receptor (human, UniProt P47871 26-477); assay: displacement of 125I-glucagon, membranes with human glucagon receptor, SPA
T1 construct: whole, on cells; the potency assay used whole cells (clone pLJ6'-4-25); also called GlucR; hGCGR
T1 sequence (P47871 26-477): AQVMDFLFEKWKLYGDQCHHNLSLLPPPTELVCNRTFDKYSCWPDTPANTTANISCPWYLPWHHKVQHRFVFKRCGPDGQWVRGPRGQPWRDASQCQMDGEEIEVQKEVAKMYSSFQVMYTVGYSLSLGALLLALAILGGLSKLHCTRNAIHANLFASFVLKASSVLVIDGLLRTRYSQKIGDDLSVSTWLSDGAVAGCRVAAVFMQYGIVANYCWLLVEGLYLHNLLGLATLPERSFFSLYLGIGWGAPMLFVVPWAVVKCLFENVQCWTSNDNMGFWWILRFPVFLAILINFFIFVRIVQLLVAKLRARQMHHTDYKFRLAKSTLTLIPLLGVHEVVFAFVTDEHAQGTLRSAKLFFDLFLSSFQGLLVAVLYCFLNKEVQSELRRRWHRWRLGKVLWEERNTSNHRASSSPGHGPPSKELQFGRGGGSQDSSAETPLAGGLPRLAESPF
Description: (§1) The receptor binding of each compound to the human glucagon receptor was measured in a displacement binding assay. […] Each derivative was added in a series of concentrations to isolated membranes containing the human glucagon receptor and displacement of the labelled ligand is monitored. The receptor binding was reported as the concentration at which half of the labelled ligand is displaced from the receptor, the IC₅₀ value.

[2] = molecular target: T2, human GLP-1 receptor (human, UniProt P43220 24-463); assay: cell-based or functional assay
[3] = molecular target: T1, human glucagon receptor; assay: cell-based or functional assay
[4] = molecular target: T2, human GLP-1 receptor; assay: displacement of 125I-GLP-1(7-36)NH2, membranes with human GLP-1R, SPA
Description: as §1, with “human GLP-1” for “human glucagon”, “ligand was” for “ligand is”

Binder	IC50 [1]	EC50 GLP-1R, CRE luciferase reporter gene assay in BHK cells [2]	EC50 GlucR, CRE luciferase reporter gene assay in BHK cells [3]	IC50 [4]
H[Aib]QGTFTSDVSKYLDARRAQDFVQWLLK([AEEA-AEEA-γGlu-γGlu-γGlu-C18 diacid])T-NH2 (N-terminus assumed; SMILES CC(C)C[C@H](NC(=O)[C@H](Cc1ccc(O)cc1)NC(=O)[C@H](CCCCN)NC(=O)[C@H](CO)NC(=O)[C@@H](NC(=O)[C@H](CC(=O)O)NC(=O)[C@H](CO)NC(=O)[C@@H](NC(=O)[C@H](Cc1ccccc1)NC(=O)[C@@H](NC(=O)CNC(=O)[C@H](CCC(N)=O)NC(=O)C(C)(C)NC(=O)[C@@H](N)Cc1c[nH]cn1)[C@@H](C)O)[C@@H](C)O)C(C)C)C(=O)N[C@@H](CC(=O)O)C(=O)N[C@@H](C)C(=O)N[C@@H](CCCNC(=N)N)C(=O)N[C@@H](CCCNC(=N)N)C(=O)N[C@@H](C)C(=O)N[C@@H](CCC(N)=O)C(=O)N[C@@H](CC(=O)O)C(=O)N[C@@H](Cc1ccccc1)C(=O)N[C@H](C(=O)N[C@@H](CCC(N)=O)C(=O)N[C@@H](Cc1c[nH]c2ccccc12)C(=O)N[C@@H](CC(C)C)C(=O)N[C@@H](CC(C)C)C(=O)N[C@@H](CCCCNC(=O)COCCOCCNC(=O)COCCOCCNC(=O)CC[C@H](NC(=O)CC[C@H](NC(=O)CC[C@H](NC(=O)CCCCCCCCCCCCCCCCC(=O)O)C(=O)O)C(=O)O)C(=O)O)C(=O)N[C@H](C(N)=O)[C@@H](C)O)C(C)C)	3.2 nM	0.0015 nM	0.03 nM	0.2 nM
H[Aib]QGTFTSDVSKYLDLRRAQDFVQWLLK([AEEA-AEEA-γGlu-γGlu-γGlu-C18 diacid])T-NH2 (N-terminus assumed; SMILES CC(C)C[C@H](NC(=O)[C@H](CC(=O)O)NC(=O)[C@H](CC(C)C)NC(=O)[C@H](Cc1ccc(O)cc1)NC(=O)[C@H](CCCCN)NC(=O)[C@H](CO)NC(=O)[C@@H](NC(=O)[C@H](CC(=O)O)NC(=O)[C@H](CO)NC(=O)[C@@H](NC(=O)[C@H](Cc1ccccc1)NC(=O)[C@@H](NC(=O)CNC(=O)[C@H](CCC(N)=O)NC(=O)C(C)(C)NC(=O)[C@@H](N)Cc1c[nH]cn1)[C@@H](C)O)[C@@H](C)O)C(C)C)C(=O)N[C@@H](CCCNC(=N)N)C(=O)N[C@@H](CCCNC(=N)N)C(=O)N[C@@H](C)C(=O)N[C@@H](CCC(N)=O)C(=O)N[C@@H](CC(=O)O)C(=O)N[C@@H](Cc1ccccc1)C(=O)N[C@H](C(=O)N[C@@H](CCC(N)=O)C(=O)N[C@@H](Cc1c[nH]c2ccccc12)C(=O)N[C@@H](CC(C)C)C(=O)N[C@@H](CC(C)C)C(=O)N[C@@H](CCCCNC(=O)COCCOCCNC(=O)COCCOCCNC(=O)CC[C@H](NC(=O)CC[C@H](NC(=O)CC[C@H](NC(=O)CCCCCCCCCCCCCCCCC(=O)O)C(=O)O)C(=O)O)C(=O)O)C(=O)N[C@H](C(N)=O)[C@@H](C)O)C(C)C)	5.7 nM	0.004 nM	0.017 nM	0.7 nM
H[Aib]QGTFTSDVSRYLDARRAQDFVQWLLK([AEEA-AEEA-γGlu-γGlu-γGlu-C18 diacid])T-NH2 (N-terminus assumed; SMILES CC(C)C[C@H](NC(=O)[C@H](Cc1ccc(O)cc1)NC(=O)[C@H](CCCNC(=N)N)NC(=O)[C@H](CO)NC(=O)[C@@H](NC(=O)[C@H](CC(=O)O)NC(=O)[C@H](CO)NC(=O)[C@@H](NC(=O)[C@H](Cc1ccccc1)NC(=O)[C@@H](NC(=O)CNC(=O)[C@H](CCC(N)=O)NC(=O)C(C)(C)NC(=O)[C@@H](N)Cc1c[nH]cn1)[C@@H](C)O)[C@@H](C)O)C(C)C)C(=O)N[C@@H](CC(=O)O)C(=O)N[C@@H](C)C(=O)N[C@@H](CCCNC(=N)N)C(=O)N[C@@H](CCCNC(=N)N)C(=O)N[C@@H](C)C(=O)N[C@@H](CCC(N)=O)C(=O)N[C@@H](CC(=O)O)C(=O)N[C@@H](Cc1ccccc1)C(=O)N[C@H](C(=O)N[C@@H](CCC(N)=O)C(=O)N[C@@H](Cc1c[nH]c2ccccc12)C(=O)N[C@@H](CC(C)C)C(=O)N[C@@H](CC(C)C)C(=O)N[C@@H](CCCCNC(=O)COCCOCCNC(=O)COCCOCCNC(=O)CC[C@H](NC(=O)CC[C@H](NC(=O)CC[C@H](NC(=O)CCCCCCCCCCCCCCCCC(=O)O)C(=O)O)C(=O)O)C(=O)O)C(=O)N[C@H](C(N)=O)[C@@H](C)O)C(C)C)	11.3 nM	0.003 nM	0.057 nM	0.5 nM
H[Aib]QGTFTSDVSRYLDLRRAQDFVQWLLK([AEEA-AEEA-γGlu-γGlu-γGlu-C18 diacid])T-NH2 (N-terminus assumed; SMILES CC(C)C[C@H](NC(=O)[C@H](CC(=O)O)NC(=O)[C@H](CC(C)C)NC(=O)[C@H](Cc1ccc(O)cc1)NC(=O)[C@H](CCCNC(=N)N)NC(=O)[C@H](CO)NC(=O)[C@@H](NC(=O)[C@H](CC(=O)O)NC(=O)[C@H](CO)NC(=O)[C@@H](NC(=O)[C@H](Cc1ccccc1)NC(=O)[C@@H](NC(=O)CNC(=O)[C@H](CCC(N)=O)NC(=O)C(C)(C)NC(=O)[C@@H](N)Cc1c[nH]cn1)[C@@H](C)O)[C@@H](C)O)C(C)C)C(=O)N[C@@H](CCCNC(=N)N)C(=O)N[C@@H](CCCNC(=N)N)C(=O)N[C@@H](C)C(=O)N[C@@H](CCC(N)=O)C(=O)N[C@@H](CC(=O)O)C(=O)N[C@@H](Cc1ccccc1)C(=O)N[C@H](C(=O)N[C@@H](CCC(N)=O)C(=O)N[C@@H](Cc1c[nH]c2ccccc12)C(=O)N[C@@H](CC(C)C)C(=O)N[C@@H](CC(C)C)C(=O)N[C@@H](CCCCNC(=O)COCCOCCNC(=O)COCCOCCNC(=O)CC[C@H](NC(=O)CC[C@H](NC(=O)CC[C@H](NC(=O)CCCCCCCCCCCCCCCCC(=O)O)C(=O)O)C(=O)O)C(=O)O)C(=O)N[C@H](C(N)=O)[C@@H](C)O)C(C)C)	16.2 nM	0.005 nM	0.049 nM	1.5 nM
H[Ac4c]QGTFTSDLSKYLEERRARDFVQWLLK([Gly-Ser-Glu-Gly-Ser-γGlu-γGlu-C18 diacid])T-NH2	3.9 nM	0.0058 nM	0.113 nM	0.2 nM
H[Ac4c]HGTFTSDLSKYLESRRAQDFVQWLLK([Gly-Ser-Glu-Gly-Ser-γGlu-γGlu-C18 diacid])T-NH2	0.7 nM	0.003 nM	0.001 nM	2.6 nM
H[Aib]HGTFTSDLSKYLESRRARDFVQWLLK([Gly-Ser-Glu-Gly-Ser-γGlu-γGlu-C18 diacid])T-NH2	0.1 nM	0.004 nM	0.002 nM	0.2 nM
H[Ac4c]QGTFTSDLSKYLDLKRAREFVQWLLK([Gly-Ser-Glu-Gly-Ser-γGlu-γGlu-C18 diacid])T-NH2	3.1 nM	0.044 nM	0.008 nM	0.2 nM
